T1: Full-length human CTGF (human, UniProt P29279 27-349)
T1 construct: Corresponds to NCBI NP_001892.1 with the signal peptide omitted; purchased from R&D Systems; also called hCTGF full length; full length CTGF
T1 sequence: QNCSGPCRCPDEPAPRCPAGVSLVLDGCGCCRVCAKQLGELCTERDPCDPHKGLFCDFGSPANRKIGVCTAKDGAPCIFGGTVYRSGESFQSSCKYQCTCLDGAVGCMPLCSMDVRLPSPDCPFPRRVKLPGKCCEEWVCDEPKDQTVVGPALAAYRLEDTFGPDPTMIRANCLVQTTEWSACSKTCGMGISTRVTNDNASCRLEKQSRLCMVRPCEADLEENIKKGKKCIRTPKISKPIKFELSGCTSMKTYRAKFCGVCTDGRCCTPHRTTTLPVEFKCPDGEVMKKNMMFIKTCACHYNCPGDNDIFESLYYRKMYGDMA


Molecular target: T1, Full-length human CTGF
Experiment: SPR, full length CTGF

| Binder | binding result | Kd [nM] |
| --- | --- | --- |
| A33 (antibody, human IgG1, kappa, L234A L235A, V domains shown) VH: EVQLVESGGGLVQPGGSLRLSCAASGFTFSDYYMAWVRQAPGKGLEWVANINYEGSRTDLLESLKSRFTISRDNAKNSVYLQMNSLRAEDTAVYYCARDTSRGSYFDVWGAGTTVTVSS VL: VVMTQTPLSLSVSLGDQASISCKSSQSIVHYNENTYLEWYLQKPGQSPQLLIYKVSSRFSGVPDRFSGSGSGTDFTLKISRVEAEDLGVYYCFQGSHFPLTFGQGTKLEIKR | no binding |  |
| A1 (antibody, human IgG1, kappa, L234A L235A, V domains shown) VH: EVQLVESGGGLVQPGGSLRLSCAASGFTFSDYYMAWVRQAPGKGLEWVANINYEGSRTDLLESLKSRFTISRDNAKNSVYLQMNSLRAEDTAVYYCARDTSRGSYFDVWGAGTTVTVSS VL: VVMTQTPLSLSVSLGDQASISCKSSQSIVHYNEKTYLEWYLQKPGQSPQLLIYKVSSRFSGVPDRFSGSGSGTDFTLKISRVEAEDLGVYYCFQGSHFPLTFGQGTKLEIKR |  | 0.29 |
| A7 (antibody, human IgG1, kappa, L234A L235A, V domains shown) VH: EVQLVESGGGLVQPGGSLRLSCAASGFTFSDYYMAWVRQAPGKGLEWVANINYDGSRTDLLESLKSRFTISRDNAKNSVYLQMNSLRAEDTAVYYCARDTSRGSYFDVWGAGTTVTVSS VL: VVMTQTPLSLSVSLGDQASISCKSSQSIVHYNEKTYLEWYLQKPGQSPQLLIYKVSSRFSGVPDRFSGSGSGTDFTLKISRVEAEDLGVYYCFQGSHFPLTFGQGTKLEIKR |  | 0.33 |
| A6 (antibody, human IgG1, kappa, L234A L235A, V domains shown) VH: EVQLVESGGGLVQPGGSLRLSCAASGFTFSDYYMAWVRQAPGKGLEWVANINYEGSRTDLLDSLKSRFTISRDNAKNSVYLQMNSLRAEDTAVYYCARDTSRGSYFDVWGAGTTVTVSS VL: VVMTQTPLSLSVSLGDQASISCKSSQSIVHYNEKTYLEWYLQKPGQSPQLLIYKVSSRFSGVPDRFSGSGSGTDFTLKISRVEAEDLGVYYCFQGSHFPLTFGQGTKLEIKR |  | 0.32 |
| A8 (antibody, human IgG1, kappa, L234A L235A) light: VVMTQTPLSLSVSLGDQASISCKSSQSIVHYNEKTYLEWYLQKPGQSPQLLIYKVSSRFSGVPDRFSGSGSGTDFTLKISRVEAEDLGVYYCFQGSHFPLTFGQGTKLEIKRTVAAPSVFIFPPSDEQLKSGTASVVCLLNNFYPREAKVQWKVDNALQSGNSQESVTEQDSKDSTYSLSSTLTLSKADYEKHKVYACEVTHQGLSSPVTKSFNRGEC heavy: not shown |  | 0.34 |
| A5 (antibody, human IgG1, kappa, L234A L235A) light: VVMTQTPLSLSVSLGDQASISCKSSQSIVHYNEKTYLEWYLQKPGQSPQLLIYKVSSRFSGVPDRFSGSGSGTDFTLKISRVEAEDLGVYYCFQGSHFPLTFGQGTKLEIKRTVAAPSVFIFPPSDEQLKSGTASVVCLLNNFYPREAKVQWKVDNALQSGNSQESVTEQDSKDSTYSLSSTLTLSKADYEKHKVYACEVTHQGLSSPVTKSFNRGEC heavy: not shown |  | 0.32 |

The remaining lines, values ahead:

| binding result | Kd [nM] | Binder |
| --- | --- | --- |
|  | 0.23 | A3 (antibody, human IgG1, kappa, L234A L235A, V domains shown) VH: EVQLVESGGGLVQPGGSLRLSCAASGFTFSDYYMAWVRQAPGKGLEWVANINYEGSRTDLLASLKSRFTISRDNAKNSVYLQMNSLRAEDTAVYYCARDTSRGSYFDVWGAGTTVTVSS VL: VVMTQTPLSLSVSLGDQASISCKSSQSIVHYNEKTYLEWYLQKPGQSPQLLIYKVSSRFSGVPDRFSGSGSGTDFTLKISRVEAEDLGVYYCFQGSHFPLTFGQGTKLEIKR |
|  | 0.22 | A4 (antibody, human IgG1, kappa, L234A L235A, V domains shown) VH: EVQLVESGGGLVQPGGSLRLSCAASGFTFSDYYMAWVRQAPGKGLEWVANINYYGSRTDLLASLKSRFTISRDNAKNSVYLQMNSLRAEDTAVYYCARDTSRGSYFDVWGAGTTVTVSS VL: VVMTQTPLSLSVSLGDQASISCKSSQSIVHYNEKTYLEWYLQKPGQSPQLLIYKVSSRFSGVPDRFSGSGSGTDFTLKISRVEAEDLGVYYCFQGSHFPLTFGQGTKLEIKR |
|  | 0.25 | A2 (antibody, human IgG1, kappa, L234A L235A, V domains shown) VH: EVQLVESGGGLVQPGGSLRLSCAASGFTFSDYYMAWVRQAPGKGLEWVANINYYGSRTDLLESLKSRFTISRDNAKNSVYLQMNSLRAEDTAVYYCARDTSRGSYFDVWGAGTTVTVSS VL: VVMTQTPLSLSVSLGDQASISCKSSQSIVHYNEKTYLEWYLQKPGQSPQLLIYKVSSRFSGVPDRFSGSGSGTDFTLKISRVEAEDLGVYYCFQGSHFPLTFGQGTKLEIKR |

Source: US20250277020A1 (Boehringer Ingelheim, published 2025)
